Assay results as given in US20230220589A1.
One block for each binder: values may come before it.

Columns and labels:
[1] = molecular target: M44-modified P NTAA target peptides; assay: encoding assay; P2 I;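 also: fraction of recording tags encoded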
[2] = molecular target: M44-modified A NTAA target peptides (M44-A-P2-peptide); assay: encoding assay; P2 N;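 also: fraction of recording tags encoded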
[3] = molecular target: M44-modified P NTAA target peptides; assay: encoding assay; P2 N;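 also: fraction of recording tags encoded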
[4] = molecular target: M44-modified T NTAA target peptides; assay: encoding assay; P2 N;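 also: fraction of recording tags encoded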
[5] = molecular target: M44-modified D NTAA target peptides; assay: encoding assay; P2 T;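 also: fraction of recording tags encoded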
[6] = molecular target: M44-modified H NTAA target peptides; assay: encoding assay; P2 T;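 also: fraction of recording tags encoded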
[7] = molecular target: M44-modified S NTAA target peptides; assay: encoding assay; P2 T
[8] = molecular target: M44-modified W NTAA target peptides; assay: encoding assay; P2 T;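 also: fraction of recording tags encoded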
[9] = molecular target: M44-modified L NTAA target peptides (M44-L-P2-peptide); assay: Gini coefficient of P1 selectivity from multiplex encoding heatmap
[10] = molecular target: M17-modified S NTAA target peptides; assay: encoding assay; P2 F;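 also: fraction of recording tags encoded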
[11] = molecular target: M17-modified A NTAA target peptides; assay: encoding assay; P2 I;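 also: fraction of recording tags encoded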
[12] = molecular target: M17-modified D NTAA target peptides; assay: encoding assay; P2 I;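 also: fraction of recording tags encoded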
[13] = molecular target: M17-modified E NTAA target peptides; assay: encoding assay; P2 I;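 also: fraction of recording tags encoded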
[14] = molecular target: M17-modified F NTAA target peptides; assay: encoding assay; P2 I;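 also: fraction of recording tags encoded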
[15] = molecular target: M17-modified G NTAA target peptides; assay: encoding assay; P2 I;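 also: fraction of recording tags encoded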
[16] = molecular target: M17-modified H NTAA target peptides; assay: encoding assay; P2 I;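 also: fraction of recording tags encoded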
[17] = molecular target: M17-modified I NTAA target peptides; assay: encoding assay; P2 I;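 also: fraction of recording tags encoded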
[18] = molecular target: M17-modified L NTAA target peptides; assay: encoding assay; P2 I;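 also: fraction of recording tags encoded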
[19] = molecular target: M17-modified M NTAA target peptides; assay: encoding assay; P2 I;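 also: fraction of recording tags encoded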
[20] = molecular target: M17-modified N NTAA target peptides; assay: encoding assay; P2 I;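 also: fraction of recording tags encoded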
[21] = molecular target: M17-modified P NTAA target peptides; assay: encoding assay; P2 I;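 also: fraction of recording tags encoded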
[22] = molecular target: M17-modified Q NTAA target peptides; assay: encoding assay; P2 I;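 also: fraction of recording tags encoded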
[23] = molecular target: M17-modified S NTAA target peptides; assay: encoding assay; P2 I;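 also: fraction of recording tags encoded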
[24] = molecular target: M17-modified T NTAA target peptides; assay: encoding assay; P2 I;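 also: fraction of recording tags encoded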
[25] = molecular target: M17-modified V NTAA target peptides; assay: encoding assay; P2 I;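 also: fraction of recording tags encoded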
[26] = molecular target: M17-modified W NTAA target peptides; assay: encoding assay; P2 I;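 also: fraction of recording tags encoded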
[27] = molecular target: M17-modified Y NTAA target peptides (M17-Y-P2-peptide); assay: encoding assay; P2 I;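 also: fraction of recording tags encoded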
[28] = molecular target: M17-modified E NTAA target peptides; assay: encoding assay; P2 N;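 also: fraction of recording tags encoded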
[29] = molecular target: M17-modified G NTAA target peptides; assay: encoding assay; P2 N;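 also: fraction of recording tags encoded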
[30] = molecular target: M17-modified H NTAA target peptides; assay: encoding assay; P2 N;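 also: fraction of recording tags encoded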
[31] = molecular target: M17-modified L NTAA target peptides; assay: encoding assay; P2 N;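 also: fraction of recording tags encoded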
[32] = molecular target: M17-modified Q NTAA target peptides; assay: encoding assay; P2 N;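 also: fraction of recording tags encoded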
[33] = molecular target: M17-modified S NTAA target peptides; assay: encoding assay; P2 N;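 also: fraction of recording tags encoded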
[34] = molecular target: M17-modified V NTAA target peptides; assay: encoding assay; P2 N;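 also: fraction of recording tags encoded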
[35] = molecular target: M17-modified W NTAA target peptides; assay: encoding assay; P2 N;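 also: fraction of recording tags encoded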
[36] = molecular target: M17-modified Y NTAA target peptides (M17-Y-P2-peptide); assay: encoding assay; P2 N;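 also: fraction of recording tags encoded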
[37] = molecular target: M17-modified A NTAA target peptides; assay: encoding assay; P2 T;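 also: fraction of recording tags encoded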
[38] = molecular target: M17-modified D NTAA target peptides; assay: encoding assay; P2 T;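 also: fraction of recording tags encoded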
[39] = molecular target: M17-modified E NTAA target peptides; assay: encoding assay; P2 T;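 also: fraction of recording tags encoded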
[40] = molecular target: M17-modified F NTAA target peptides; assay: encoding assay; P2 T;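 also: fraction of recording tags encoded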
[41] = molecular target: M17-modified G NTAA target peptides; assay: encoding assay; P2 T;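 also: fraction of recording tags encoded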
[42] = molecular target: M17-modified H NTAA target peptides; assay: encoding assay; P2 T;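 also: fraction of recording tags encoded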
[43] = molecular target: M17-modified I NTAA target peptides; assay: encoding assay; P2 T;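 also: fraction of recording tags encoded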
[44] = molecular target: M17-modified L NTAA target peptides; assay: encoding assay; P2 T;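 also: fraction of recording tags encoded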
[45] = molecular target: M17-modified M NTAA target peptides; assay: encoding assay; P2 T;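 also: fraction of recording tags encoded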
[46] = molecular target: M17-modified N NTAA target peptides; assay: encoding assay; P2 T;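 also: fraction of recording tags encoded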
[47] = molecular target: M17-modified P NTAA target peptides; assay: encoding assay; P2 T;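 also: fraction of recording tags encoded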
[48] = molecular target: M17-modified Q NTAA target peptides; assay: encoding assay; P2 T;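 also: fraction of recording tags encoded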
[49] = molecular target: M17-modified S NTAA target peptides; assay: encoding assay; P2 T;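 also: fraction of recording tags encoded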
[50] = molecular target: M17-modified T NTAA target peptides; assay: encoding assay; P2 T;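 also: fraction of recording tags encoded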
[51] = molecular target: M17-modified V NTAA target peptides; assay: encoding assay; P2 T;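 also: fraction of recording tags encoded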
[52] = molecular target: M17-modified W NTAA target peptides; assay: encoding assay; P2 T;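 also: fraction of recording tags encoded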
[53] = molecular target: M17-modified Y NTAA target peptides (M17-Y-P2-peptide); assay: encoding assay; P2 T;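 also: fraction of recording tags encoded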
[54] = molecular target: M17-modified Y NTAA target peptides (M17-Y-P2-peptide); assay: Gini coefficient of P1 selectivity from multiplex encoding heatmap

B2: engineered M17-Y binder (SEQ ID NO: 61) (designed binder, not shown: small tags and cut ends; large carriers)
chain: TVPDRSEIAGKWYVVALASNTEFYLREKDWVKSAMARISFLGEDELKVSSAVPSPNGCYKVERTWKKTSDDGEVYNSRAAKLKVEVLDTDYKSYAVIYATRVKDGRTDHQMILYSRSPEVSPAATAIFRKLAGERNYTDEMVAMLPRQEECTVDEV
encoding yield [10]: 0.02
encoding yield [11]: 0.02
encoding yield [12]: 0.02
encoding yield [13]: 0.03
encoding yield [14]: 0.03
encoding yield [15]: 0.01
encoding yield [16]: 0.04
encoding yield [17]: 0.05
encoding yield [18]: 0.02
encoding yield [19]: 0.01
encoding yield [20]: 0.03
encoding yield [21]: 0.01
encoding yield [22]: 0.02
encoding yield [23]: 0.01
encoding yield [24]: 0.01
encoding yield [25]: 0.03
encoding yield [26]: 0.02
encoding yield [27]: 0.17
encoding yield [28]: 0.02
encoding yield [29]: 0.03
encoding yield [30]: 0.03
encoding yield [31]: 0.02
encoding yield [32]: 0.02
encoding yield [33]: 0.02
encoding yield [34]: 0.02
encoding yield [35]: 0.02
encoding yield [36]: 0.06
encoding yield [37]: 0.03
encoding yield [38]: 0.01
encoding yield [39]: 0.01
encoding yield [40]: 0.06
encoding yield [41]: 0.04
encoding yield [42]: 0.01
encoding yield [43]: 0.06
encoding yield [44]: 0.04
encoding yield [45]: 0.01
encoding yield [46]: 0.02
encoding yield [47]: 0.01
encoding yield [48]: 0.03
encoding yield [49]: 0.01
encoding yield [50]: 0.02
encoding yield [51]: 0.03
encoding yield [52]: 0.01
encoding yield [53]: 0.14
P1 score [54]: 0.196

B4: engineered M44-L binder (SEQ ID NO: 21) (designed binder, not shown: small tags and cut ends; large carriers)
chain: QVSVQPNFQQDKFLGRWFYAGHASNSSWYREKVAALSMAKLVVAPATDGGLNATETFLRKNQCETITSLLQPAGSLGSYSSRSPHGGSTWSTSVVETDYDQYALLYLQGSKGPGEDFRGAILASRTQTPRAELKEKFTAFSKAQGFTEDTIVFLPQTDKCMTEQ
P1 score [9]: 0.412

B5: engineered M44-A binder (SEQ ID NO: 42) (designed binder, not shown: small tags and cut ends; large carriers)
chain: QVSVQPNFQQDKFLGRWFVAGLASNSSWDREKVAALSGAKMVVAPATDGGLNVTRTMLRKNQCETYTGLLQPAGSLGSYSWRSPHPGSTGSESVVETDYDQYALVYGQGSKGPGEDLRAAALWSRTQTPRAELKEKFTAFSKAQGFTEDTIVFLPQTDKCMTEQ
encoding yield [1]: 0.01
encoding yield [2]: 0.1
encoding yield [3]: 0.02
encoding yield [4]: 0.02
encoding yield [5]: 0.02
encoding yield [6]: 0.01
encoding yield [7]: 0.01
encoding yield [8]: 0.01

Second part, the binder after the results:

encoding yield [1]: 0.01
encoding yield [2]: 0.02
encoding yield [3]: 0.01
encoding yield [4]: 0.01
encoding yield [5]: 0.01
encoding yield [6]: 0.02
encoding yield [7]: 0.01
encoding yield [8]: 0.01
P1 score [9]: 0.332
B1: engineered M44-L binder (SEQ ID NO: 31) (designed binder, not shown: small tags and cut ends; large carriers)
chain: QDSTQNLIPAPPLISVPLQPGFWTERFQGRWFLVGFAGNAVQKERQSRLTMQSLILELQEDNSYNITAINVRGQGCRYIISTLVPSSRPGQFTLGNIHSYPQIQSLDVQVADTDYDQFAMVFLQGTSENKQYFEVALAGRTKGLSDELKERFVSFAKSLGLKDNNIVFSVPTDQCIDN

encoding yield [10]: 0.02
encoding yield [11]: 0.03
encoding yield [12]: 0.02
encoding yield [13]: 0.03
encoding yield [14]: 0.05
encoding yield [15]: 0.02
encoding yield [16]: 0.04
encoding yield [17]: 0.08
encoding yield [18]: 0.05
encoding yield [19]: 0.02
encoding yield [20]: 0.03
encoding yield [21]: 0.01
encoding yield [22]: 0.03
encoding yield [23]: 0.02
encoding yield [24]: 0.02
encoding yield [25]: 0.05
encoding yield [26]: 0.04
encoding yield [27]: 0.31
encoding yield [28]: 0.03
encoding yield [29]: 0.03
encoding yield [30]: 0.03
encoding yield [31]: 0.03
encoding yield [32]: 0.02
encoding yield [33]: 0.02
encoding yield [34]: 0.03
encoding yield [35]: 0.02
encoding yield [36]: 0.15
encoding yield [37]: 0.02
encoding yield [38]: 0.02
encoding yield [39]: 0.02
encoding yield [40]: 0.08
encoding yield [41]: 0.05
encoding yield [42]: 0.02
encoding yield [43]: 0.1
encoding yield [44]: 0.08
encoding yield [45]: 0.02
encoding yield [46]: 0.02
encoding yield [47]: 0.01
encoding yield [48]: 0.02
encoding yield [49]: 0.01
encoding yield [50]: 0.04
encoding yield [51]: 0.05
encoding yield [52]: 0.02
encoding yield [53]: 0.24
P1 score [54]: 0.204
B3: upgraded binder after additional maturation round (SEQ ID NO: 62) (designed binder, not shown: small tags and cut ends; large carriers)
chain: TVPDRSEIAGKWYVVALASNTEFYLRGKDRVKSAMVRISFQGEDELKVSSAVPSPNGCYKVERTWKKTSDDGEVYNSRAAKLKVEVLDTDYKSYAVIYATRVKDRRTDHQMILYSRSPDVSPAATAIFRKLAGERNYTDEMVAMLPRQEECTVDEV
